Measurements as given in article doi:10.1101/2020.10.13.338178.
No end group written: not given here. *: point of attachment. AMC = Cc1cc(=O)oc2cc(N*)ccc12

What was measured:
[1] = biological target: Plasmodium berghei M17 aminopeptidase (Plasmodium berghei)
[2] = biological target: T1, Plasmodium vivax M17 aminopeptidase (Plasmodium vivax) (UniProt A5K3U9)
T1 sequence (A5K3U9 74-621, looked up): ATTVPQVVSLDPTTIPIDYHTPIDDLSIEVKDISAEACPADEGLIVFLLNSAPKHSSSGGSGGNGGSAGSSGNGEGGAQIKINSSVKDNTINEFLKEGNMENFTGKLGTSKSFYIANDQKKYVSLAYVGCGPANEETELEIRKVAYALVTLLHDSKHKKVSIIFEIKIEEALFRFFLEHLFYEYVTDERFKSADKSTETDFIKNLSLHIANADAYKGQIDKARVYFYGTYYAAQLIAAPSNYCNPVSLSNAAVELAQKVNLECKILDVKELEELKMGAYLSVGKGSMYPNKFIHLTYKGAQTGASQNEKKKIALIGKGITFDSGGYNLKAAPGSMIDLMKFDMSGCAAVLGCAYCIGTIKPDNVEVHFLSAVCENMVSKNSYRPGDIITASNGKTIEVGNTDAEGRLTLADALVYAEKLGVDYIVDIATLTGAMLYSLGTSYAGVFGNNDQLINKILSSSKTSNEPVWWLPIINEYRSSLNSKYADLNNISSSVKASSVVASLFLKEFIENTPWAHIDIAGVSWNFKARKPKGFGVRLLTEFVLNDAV

[3] = biological target: T2, Plasmodium falciparum M17 leucine aminopeptidase (Plasmodium falciparum) (UniProt Q8IL11)
T2 sequence: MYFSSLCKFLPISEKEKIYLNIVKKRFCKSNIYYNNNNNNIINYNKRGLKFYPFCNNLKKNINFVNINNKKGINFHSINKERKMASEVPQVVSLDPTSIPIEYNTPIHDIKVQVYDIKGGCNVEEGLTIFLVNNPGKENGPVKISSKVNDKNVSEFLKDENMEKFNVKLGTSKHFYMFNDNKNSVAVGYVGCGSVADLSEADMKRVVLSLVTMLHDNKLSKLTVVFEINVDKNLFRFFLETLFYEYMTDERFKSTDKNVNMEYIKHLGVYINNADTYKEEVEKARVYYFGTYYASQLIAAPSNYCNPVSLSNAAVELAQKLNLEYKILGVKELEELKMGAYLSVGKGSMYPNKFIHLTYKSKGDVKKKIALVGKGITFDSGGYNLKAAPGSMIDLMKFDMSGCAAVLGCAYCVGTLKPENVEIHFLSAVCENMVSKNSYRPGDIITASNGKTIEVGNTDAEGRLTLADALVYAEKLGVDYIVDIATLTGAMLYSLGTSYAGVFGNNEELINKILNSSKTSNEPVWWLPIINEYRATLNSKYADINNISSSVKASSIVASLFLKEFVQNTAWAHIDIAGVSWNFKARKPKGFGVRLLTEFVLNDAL

[4] = biological target: Plasmodium vivax M1 aminopeptidase (Plasmodium vivax)
[5] = biological target: Plasmodium berghei M1 aminopeptidase (Plasmodium berghei)

With “Leucine-Leucine-7-amido-4-methyl-coumarin (peptide)” the Km of hydrolysis (release of NHMec, Michaelis-Menten kinetics, 1 mM CoCl2) [1] was 25 µM, the Km of hydrolysis (release of NHMec, Michaelis-Menten kinetics, 1 mM CoCl2) [2] was 32.9 µM and the Km of hydrolysis (release of NHMec, Michaelis-Menten kinetics, 1 mM CoCl2) [3] was 30.8 µM. It also gave a Km of hydrolysis (release of NHMec, Michaelis-Menten kinetics) [4] of 27.9 µM and a Km of hydrolysis (release of NHMec, Michaelis-Menten kinetics) [5] of 28.4 µM.

In the case of LLLL-{AMC} [Leucine-Leucine-Leucine-Leucine-7-amido-4-methyl-coumarin], the Km of hydrolysis (release of NHMec, Michaelis-Menten kinetics, 1 mM CoCl2) [1] is reported as 4.6 µM, the Km of hydrolysis (release of NHMec, Michaelis-Menten kinetics, 1 mM CoCl2) [2] is reported as 22.6 µM and the Km of hydrolysis (release of NHMec, Michaelis-Menten kinetics, 1 mM CoCl2) [3] is reported as 6.9 µM. It also gave a Km of hydrolysis (release of NHMec, Michaelis-Menten kinetics) [4] of 41.5 µM and a Km of hydrolysis (release of NHMec, Michaelis-Menten kinetics) [5] of 33.9 µM.
